Patent US6699656B2, “Treatment and prevention of HIV infection by administration of derivatives of human chorionic gonadotropin” (University of Maryland Biotechnology Institute, priority 1996, dated 2004)

Tests used:
HIV-1 [1] = settings: p24 antigen days 3 to 10; peptides 0.05 to 50 nmoles/ml, hCG 0.01 to 1,000 IU, native β-hCG 100 to 1,000 μg
Procedure: Sequences of the peptides are as follows:
HIV-1 infected cells were treated with the above preparations and the virus was measured.

[2] = system: hematopoietic progenitor cells; assay: Hematopoietic progenitor colony assays (CFU-MIX, BFU-e, CFU-GM); type: cell-based; settings: bone marrow and cord blood; hCG 200 IU/ml, peptides and subunits 100 μg/ml; 10 days
From the text: Hematopoietic progenitor cells (2×10^5 cell/ml) were isolated from normal bone marrow and cord blood and seeded in methylcellulose. […] Aggregates containing more than 50 cells after 10 days of culture were counted as colonies.

Kaposi's Sarcoma = settings: literature; cited from earlier work
HIV-1 [3] = settings: higher doses increased viral production; cited from earlier work
KS Y-1 or KS-SLK cells = assay: KS clonogenic assay; type: cell-based, human; settings: 2 KS cell lines; peptides 50 nmoles/ml, CR127 2 nmoles/ml; 10 days
Procedure: Briefly, the KS Y-1 cells were obtained from mononuclear cells isolated from pleural effusion of an AIDS patient with KS involving the lungs. After the depletion of T lymphocytes, monocytes/macrophages and fibroblasts by the cytotoxicity method, using monoclonal antibodies against CD2, CD3, CD4, CD8, CD10 and CD14 membrane antigens and baby rabbit complement, the cells were cultured in the absence of exogenous growth factors to select for transformed cells.

Molecule	inhibition of HIV-1 infection/replication in acutely infected cells (HIV-1 [1])	growth of hematopoietic progenitors (colonies) [2]	efficacy in the treatment of Kaposi's Sarcoma (Kaposi's Sarcoma)	doses reducing HIV production in monocytes (HIV-1 [3])	anti-KS effect in clonogenic assays (number of colonies) (KS Y-1 or KS-SLK cells)
partially purified native β-hCG (NβhCG): partially purified native β-hCG dissociated from hCG, Sigma (protein, UniProt P0DN86 21-165, looked up) Choriogonadotropin subunit …: SKEPLRPRCRPINATLAVEKEGCPVCITVNTTICAGYCPTMTRVLQGVLPALPQVVCNYRDVRFESIRLPGCPRGVNPVVSYAVALSCQCALCRRSTTDCGGPKDHPLTCDDPRFQDSSSSKAPPPSLPSPSRLPGPSDTPILPQ	active	directly promoted	–	–	–
β-hCG: β-subunit of hCG as reported in the literature (protein, UniProt P0DN86 21-165, looked up) Choriogonadotropin subunit …: SKEPLRPRCRPINATLAVEKEGCPVCITVNTTICAGYCPTMTRVLQGVLPALPQVVCNYRDVRFESIRLPGCPRGVNPVVSYAVALSCQCALCRRSTTDCGGPKDHPLTCDDPRFQDSSSSKAPPPSLPSPSRLPGPSDTPILPQ	–	–	efficacious	≤ 10 µg/mL	–
recombinant β-hCG: purified recombinant β-chain of hCG (protein, UniProt P0DN86 21-165, looked up) Choriogonadotropin subunit …: SKEPLRPRCRPINATLAVEKEGCPVCITVNTTICAGYCPTMTRVLQGVLPALPQVVCNYRDVRFESIRLPGCPRGVNPVVSYAVALSCQCALCRRSTTDCGGPKDHPLTCDDPRFQDSSSSKAPPPSLPSPSRLPGPSDTPILPQ	not to be active	–	–	–	no anti-KS effect
